Test results published in PMC5895073, “Cell polarity protein Spa2 coordinates Chs2 incorporation at the division site in budding yeast” (PLoS Genetics, 2018).

Target: T1, Strep-tag-Chs2-V377I-215-629 (S. cerevisiae, UniProt P14180 215-629, V377I)
T1 construct: Chs2 (chitin synthase II), S. cerevisiae, residues 215-629 with the hypermorphic change V377I; also called Strep-tag-Chs2-215-629-V377I; source: E. coli Rosetta, in cell extract
T1 sequence (looked up): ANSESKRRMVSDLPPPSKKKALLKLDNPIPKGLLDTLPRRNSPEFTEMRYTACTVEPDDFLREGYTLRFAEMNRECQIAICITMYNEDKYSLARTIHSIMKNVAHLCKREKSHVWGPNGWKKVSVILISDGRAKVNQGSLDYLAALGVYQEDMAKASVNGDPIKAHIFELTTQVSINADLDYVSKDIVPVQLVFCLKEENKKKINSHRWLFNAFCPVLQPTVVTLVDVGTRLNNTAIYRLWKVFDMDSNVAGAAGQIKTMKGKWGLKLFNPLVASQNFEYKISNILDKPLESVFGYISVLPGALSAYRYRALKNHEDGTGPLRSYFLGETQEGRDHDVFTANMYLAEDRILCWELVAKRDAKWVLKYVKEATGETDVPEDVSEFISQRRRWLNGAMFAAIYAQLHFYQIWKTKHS
Experiment: pull-down; pairs of E. coli cultures mixed, one cell extract; Strep-tagged protein isolated on Strep-Tactin Superflow resin, eluted with 2.5 mM d-desthiobiotin; immunoblot with anti-Strep and anti-His
Conditions: partners not purified

amount of Inn1 co-purified, fold over that with Strep-tag-Chs2-215-629: ~3 fold
B1: 6His-tagged-Inn1 (natural protein, S. cerevisiae, UniProt P53901 1-409, looked up)
chain: MSEEVWNGNQGILSVYVSKARDLPNLNKLDKQNVMLRLRIAHMTRASNTLHRAGQNPVFHYLEKFDITPEIKPLMYVEVYCDRRKKSPLPIGRCEIDLLNAIRADPKEGYCTWYELKRSGDEFAGTIFIELTFTPKVPRLNRDDLNKEMDRLDSSMAMRPIPPLPTESEYDYVHGSTMRQITPQCVSTSHEDKDEGQPYRNGNVFSMSSKSDTAVLANSNDPIILPPTFSASMGTTSTLETNDTAISNTSNTKFHFANLRKLKEKINIFKNPDSSTNNCQNESNKVDIEALQKAIGVTSLSYDEDDDDDDENDAFYSSSHRVSHNYNQPPLPPIPTRDDMSNYSSSRNTPLVRRDRPSRLDSSSPNSHPHPSGLNSPKLPPLPTTSNSNFNSRKNSMSPTRKRPPPRLS
notes: Inn1, S. cerevisiae; also called 6His-Inn1; source: E. coli Rosetta, in cell extract
